The values that follow come from patent US9695228B2, “EGFR and c-Met fibronectin type III domain binding molecules” (Janssen Biotech, Inc., priority 2012, dated 2017).

Several values for one entry are separate records, joined by “and”; a condition that tells them apart may be missing. Equal entries are not always repeated. Entries after “also recorded” stand apart in the source; their conditions may differ. Where two headings read alike, the source gives them in different places.

Series [1] relates to NCI-H292 cells expressing human HGF, xenograft. In words: Tumor efficacy study with bispecific molecules of variable affinity, H292-HGF xenograft. The conditions noted are these: 25 mg/kg three times per week, FIG. 8. The class given is in vivo, mice. The method, then: One week after implantation, mice were stratified into groups with equivalent tumor volumes (mean tumor volume=77.9+/−1.7 mm^3). Mice were dosed three times per week with the bispecific molecules and tumor volumes were recorded twice weekly.

Series [2] has as its system H292-HGF human lung cancer xenograft. The class given is in vivo.
Procedure: The H292-HGF cells were maintained in vitro in RPMI1640 medium supplemented with fetal bovine serum (10% v/v), and L-glutamine (2 mM) at 37° C. in an atmosphere of 5% CO2 in air. The cells were routinely subcultured twice weekly by trypsin-EDTA treatment. The cells growing in an exponential growth phase were harvested and counted for tumor inoculation.
Each mouse was inoculated subcutaneously at the right flank region with H292-HGF tumor cells (2×10^6) in 0.1 ml of PBS with cultrex (1:1) for tumor development. The treatments were started when the mean tumor size reached 139 mm^3. […] The date of tumor cell inoculation was denoted as day 0.
Before commencement of treatment, all animals were weighed and the tumor volumes were measured. Since the tumor volume can affect the effectiveness of any given treatment, mice were assigned into groups using randomized block design based upon their tumor volumes. […] The randomized block design was used to assign experimental animals to groups. First, the experimental animals were divided into homogeneous blocks according to their initial tumor volume. Secondly, within each block, randomization of experimental animals to treatments was conducted.
At the time of routine monitoring, the animals were checked for any effects of tumor growth and treatments on normal behavior, such as mobility, visual estimation of food and water consumption, body weight gain/loss (body weights were measured twice weekly), eye/hair matting and any other abnormal effect.
The endpoint was whether tumor growth can be delayed or tumor bearing mice can be cured. Tumor size was measured twice weekly in two dimensions using a caliper, and the volume was expressed in mm^3 using the formula: V=0.5 a×b^2 where a and b are the long and short diameters of the tumor, respectively. The tumor size was then used for calculations of both T-C and T/C values. T-C was calculated with T as the time (in days) required for the mean tumor size of the treatment group to reach 1000 mm^3, and C was the time (in days) for the mean tumor size of the control group to reach the same size. The T/C value (in percent) was an indication of antitumor efficacy; T and C were the mean tumor volume of the treated and control groups, respectively, on a given day. Complete tumor regression (CR) is defined as tumors that are reduced to below the limit of palpation (62.5 mm^3). Partial tumor regression (PR) is defined as tumors that are reduced from initial tumor volume. A minimum duration of CR or PR in 3 or more successive tumor measurements is required for a CP or PR to be considered durable.
Animals for which the body weight loss exceeded 20%, or for which the mean tumor size of the group exceeds 2000 mm^3 were euthanized. The study was terminated after two weeks of observation after the final dose.
Statistical analyses of difference in tumor volume among the groups were evaluated using a one-way ANOVA followed by individual comparisons using Games-Howell (equal variance not assumed). All data were analyzed using SPSS 18.0. p<0.05 was considered to be statistically significant.
The test system of another series is NCI-H1975 cell line. In words: Inhibition of growth of NCI-H1975 cell line (EGFR L858R; T790M). The class given is cell-based, human. The conditions noted are these: NCI-H1975, mutation T790M. The method, then: Inhibition of human tumor cell growth was assessed in standard attachment culture as described in Examples 3 or 6, or in low attachment conditions.
In a further series the target is T1, c-Met-Fc fusion protein (Homo sapiens, UniProt P08581).
T1 construct: recombinant EGFR and/or c-Met extracellular domain was further analyzed by surface Plasmon resonance
T1 sequence (P08581 25-932 limits assumed): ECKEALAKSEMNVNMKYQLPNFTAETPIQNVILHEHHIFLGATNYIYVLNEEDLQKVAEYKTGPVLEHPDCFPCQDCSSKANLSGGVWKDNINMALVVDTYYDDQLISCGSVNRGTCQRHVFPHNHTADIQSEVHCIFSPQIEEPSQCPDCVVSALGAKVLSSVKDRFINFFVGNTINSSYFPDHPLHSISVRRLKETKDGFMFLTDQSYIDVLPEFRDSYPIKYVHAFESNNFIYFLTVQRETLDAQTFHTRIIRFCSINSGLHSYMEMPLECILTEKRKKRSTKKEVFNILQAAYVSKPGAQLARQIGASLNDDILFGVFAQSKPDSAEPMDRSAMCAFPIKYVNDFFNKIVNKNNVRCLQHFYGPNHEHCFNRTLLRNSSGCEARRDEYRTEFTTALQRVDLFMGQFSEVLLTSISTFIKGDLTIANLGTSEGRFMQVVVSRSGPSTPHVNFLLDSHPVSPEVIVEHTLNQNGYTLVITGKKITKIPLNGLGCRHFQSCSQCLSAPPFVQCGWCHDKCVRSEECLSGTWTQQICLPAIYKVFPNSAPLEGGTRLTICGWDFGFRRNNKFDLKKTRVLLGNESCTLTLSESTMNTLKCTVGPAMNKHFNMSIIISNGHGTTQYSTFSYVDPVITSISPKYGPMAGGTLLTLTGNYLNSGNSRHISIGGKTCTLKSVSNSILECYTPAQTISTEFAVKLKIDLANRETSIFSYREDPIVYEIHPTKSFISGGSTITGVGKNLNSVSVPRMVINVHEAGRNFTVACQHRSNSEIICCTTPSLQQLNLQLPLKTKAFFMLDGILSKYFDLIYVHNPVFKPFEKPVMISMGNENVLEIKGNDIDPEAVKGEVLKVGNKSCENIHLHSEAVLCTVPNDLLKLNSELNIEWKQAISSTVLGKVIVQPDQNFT
In words: c-Met-Fc affinity by surface plasmon resonance (ProteOn). The class given is binding. The conditions noted are these: serine mutants of A3 in the context of ECB15, SPR. On the technique in general: Surface plasmon resonance follows binding to a sensor surface in real time, without labels.

A short description of series [3]: Differential scanning calorimetry in PBS (thermal stability). In kind it is physicochemical. The conditions noted are these: DSC in PBS, c-Met-binding FN3 domains. A general note: DSC measures the heat that a sample takes up or gives off during a temperature scan.

B1: ECB18: bispecific linked to albumin binding domain, SEQ ID NO: 118; high EGFR / medium c-Met affinity (protein)
chain: MLPAPKNLVVSEVTEDSARLSWDDPWAFYESFLIQYQESEKVGEAIVLTVPGSERSYDLTGLKPGTEYTVSIYGVHNVYKDTNMRGLPLSAIFTTAPAPAPAPAPLPAPKNLVVSRVTEDSARLSWTAPDAAFDSFWIRYDEVVVGGEAIVLTVPGSERSYDLTGLKPGTEYYVNILGVKGGSISVPLSAIFTTAPAPAPAPAPLAEAKVLANRELDKYGVSDYYKNLINNAKTVEGVKALLDEILAALP
modifications: Bispecific EGFR/c-Met binding molecule
Take B1: in series [1], the “tumor growth inhibition (in words)” value is reported as “delay in tumor growth”.

B2: ECB38: bispecific linked to albumin binding domain, SEQ ID NO: 120; high EGFR / high c-Met affinity; test article of Tables 14-16 (protein)
chain: MLPAPKNLVVSEVTEDSARLSWDDPWAFYESFLIQYQESEKVGEAIVLTVPGSERSYDLTGLKPGTEYTVSIYGVHNVYKDTNMRGLPLSAIFTTAPAPAPAPAPLPAPKNLVVSRVTEDSARLSWTAPDAAFDSFWIRYFEFLGSGEAIVLTVPGSERSYDLTGLKPGTEYVVNIMGVKGGKISPPLSAIFTTAPAPAPAPAPLAEAKVLANRELDKYGVSDYYKNLINNAKTVEGVKALLDEILAALP
modifications: Bispecific EGFR/c-Met binding molecule
Consider B2, for which the treatment tolerated in series [2] (25 mg/kg, 3 times/week x 3 weeks) is given as 7 out of 10. The Tumor volume is 137 ± 7 mm^3 in series [2] (day 7 (start of treatment), mean ± SEM, doses as in column head); 142 ± 7 mm^3 in series [2] (day 9, mean ± SEM); 83 ± 6 mm^3 in series [2] (day 13, mean ± SEM); 44 ± 7 mm^3 in series [2] (day 16, mean ± SEM); 30 ± 6 mm^3 in series [2] (day 20, mean ± SEM); 23 ± 7 mm^3 in series [2] (day 23, mean ± SEM). Besides, the Tumor volume in series [2] (day 27, mean ± SEM) turned out to be 21 ± 5 mm^3; in series [2] (day 30, mean ± SEM), 23 ± 6 mm^3. The “Tumor Size at day 23” value in series [2] (day 23 after tumor inoculation, doses given with treatment, listed as bispecific EGFR/c-Met molecule) was 23 mm^3 and 23 ± 7 mm^3. In addition, the “antitumor activity (in words)” value in series [2] (doses as in Table 14, listed as bispecific EGFR/c-Met molecule) is recorded as “complete tumor regression (CR) in all mice; also recorded: complete response”. Further, the “mice euthanized when BWL>20% during the treatment period” value in series [2] (mouse, in vivo) turned out to be 3 mice. Moreover, the “tolerability / body weight loss (in words)” value in series [2] (mouse, in vivo) is reported as “Slight toxicity”. Moreover, the “tumor growth inhibition (in words)” value in series [1] is on record as “showed the most efficacy”.

B3: ECB39: bispecific linked to albumin binding domain, SEQ ID NO: 121; medium EGFR / high c-Met affinity (protein)
chain: MLPAPKNLVVSEVTEDSARLSWADPHGFYDSFLIQYQESEKVGEAIVLTVPGSERSYDLTGLKPGTEYTVSIYGVHNVYKDTNMRGLPLSAIFTTAPAPAPAPAPLPAPKNLVVSRVTEDSARLSWTAPDAAFDSFWIRYFEFLGSGEAIVLTVPGSERSYDLTGLKPGTEYVVNIMGVKGGKISPPLSAIFTTAPAPAPAPAPLAEAKVLANRELDKYGVSDYYKNLINNAKTVEGVKALLDEILAALP
modifications: Bispecific EGFR/c-Met binding molecule
Regarding B3, the “tumor growth inhibition (in words)” value in series [1] is listed as “showed the most efficacy”.

B4: ECB15: bispecific, SEQ ID NO: 57 (145 in Table 19): P54AR4-83v2-(AP)5-P114AR7P94-A3 (protein)
chain: MLPAPKNLVVSEVTEDSARLSWDDPWAFYESFLIQYQESEKVGEAIVLTVPGSERSYDLTGLKPGTEYTVSIYGVHNVYKDTNMRGLPLSAIFTTAPAPAPAPAPLPAPKNLVVSRVTEDSARLSWTAPDAAFDSFWIRYFEFLGSGEAIVLTVPGSERSYDLTGLKPGTEYVVNIMGVKGGKISPPLSAIFTT
modifications: bispecific EGFR/cMet binding molecule
On to B4, for which the “inhibition of growth (in words)” value in the series with NCI-H1975 cell line is given as “inhibited growth of NCI-H1975 cell line”. In the series with c-Met-Fc fusion protein, this molecule returned a ka of 351000 M⁻¹ s⁻¹ and a kd of 0.000133 s⁻¹.

B5: P114AR7P95-F10: c-Met-binding FN3 domain, SEQ ID NO: 47 (protein)
chain: LPAPKNLVVSRVTEDSARLSWTAPDAAFDSFWIRYFEFTTAGEAIVLTVPGSERSYDLTGLKPGTEYVVNIMGVKGGSISPPLSAIFTT
modifications: c-Met binding FN3 domain
As for B5, the “Thermal Stability (Tm)” value in series [3] came out at 85.2 C.

B6: P114AR7P92-F6: c-Met-binding FN3 domain, SEQ ID NO: 35 (protein)
chain: LPAPKNLVVSRVTEDSARLSWTAPDAAFDSFWIRYFEFLGSGEAIVLTVPGSERSYDLTGLKPGTEYVVNILGVKGGGLSVPLSAIFTT
modifications: c-Met binding FN3 domain
Consider B6, for which, in series [3], the “Thermal Stability (Tm)” value stood at 76.8 C.

B7: P114AR5P74-A5: c-Met-binding FN3 domain, SEQ ID NO: 32 (protein)
chain: LPAPKNLVVSRVTEDSARLSWTAPDAAFDSFWIRYDEVVVGGEAIVLTVPGSERSYDLTGLKPGTEYYVNILGVKGGSISVPLSAIFTT
modifications: c-Met binding FN3 domain
Turning to B7, in series [3], the “Thermal Stability (Tm)” value stood at 74.1 C.

B8: P114AR7P95-G7: c-Met-binding FN3 domain, SEQ ID NO: 48 (protein)
chain: LPAPKNLVVSRVTEDSARLSWTAPDAAFDSFWIRYFELLSTGEAIVLTVPGSERSYDLTGLKPGTEYVVNIMGVKGGSISPPLSAIFTT
modifications: c-Met binding FN3 domain
As for B8, the “Thermal Stability (Tm)” value in series [3] stood at 87.2 C.

B9: P114AR7P95-H8: c-Met-binding FN3 domain, SEQ ID NO: 49 (protein)
chain: LPAPKNLVVSRVTEDSARLSWTAPDAAFDSFWIRYFEFVSKGEAIVLTVPGSERSYDLTGLKPGTEYVVNIMGVKGGSISPPLSAIFTT
modifications: c-Met binding FN3 domain
On to B9, for which the “Thermal Stability (Tm)” value in series [3] amounted to 83 C.
